{"source": "patent US20210277119A1", "about": "(MARENGO THERAPEUTICS, published 2021)", "binders": {"B1": {"name": "A-H.52 (scFv)", "scFv": "QVQLVQSGAEVKKPGSSVKVSCKASGYSFTLGYIHWVRQAPGQGLEWMGWFFPGSGNIKYNEKFKGRVTITADTSTSTAYMELSSLRSEDTAVYYCAGSYYSYDVLDYWGQGTTVTVSSGGGGSGGGGSGGGGSGGGGSDIQMTQSPSFLSASVGDRVTITCKASQNVGINVVWHQQKPGKAPKALIYSSSHRYSGVPSRFSGSGSGTEFTLTISSLQPEDFATYFCQQFKSYPLTFGQGTKLEIK", "notes": "Said to be a phage clone and a monovalent scFv; also called phage clone; monovalent scFv"}, "B2": {"name": "A-H.53 (scFv)", "scFv": "B1 scFv with T30R, G32T", "notes": "Called a phage clone; also called phage clone"}, "B3": {"name": "A-H.54 (scFv)", "scFv": "B1 scFv with T30H, L31N, G32W", "notes": "as for B2"}}, "note": "Substitutions are numbered along the chain they refer to."}
{"biological_target": "T1, recombinant protein TCRVB 6-5 (human, UniProt A0A0K0K1A5 22-114, limits assumed, captured on a Biotin CAP sensor chip (biotinylated; site not stated))", "T1 construct": "also called TCRVβ 6-5; TCRβ V6-5*01", "T1 sequence (TCR beta)": "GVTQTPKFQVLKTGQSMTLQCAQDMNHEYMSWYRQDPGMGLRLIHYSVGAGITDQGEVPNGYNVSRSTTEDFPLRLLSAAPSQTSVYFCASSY", "assay": "SPR, TCRVB 6-5 on Biotin CAP chip, compared with BJM0277", "protocol": "(§1) TCRVB 6-5 at 5 ug/mL was immobilized on a Biotin CAP Series S Sensor Chip to 60 RU. A-H.52 was diluted to 50 nM and then serially diluted two fold. Association was 120 seconds, dissociation was 300 seconds. This assay was run in 1×HBS-EP+ Buffer pH 7.4 and 25 C. The data was fit using a 1:1 binding model. A-H.52 is a phage clones and is a monovalent scFv. A-H.52 has two mutations on CDRH1.\n(§2) TCRVB 6-5 at 5 ug/mL was immobilized on a Biotin CAP Series S Sensor Chip to 60 RU. A-H.53 was diluted to 50 nM and then serially diluted two fold. Association was 120 seconds, dissociation was 300 seconds. This assay was run in 1×HBS-EP+ Buffer pH 7.4 and 25 C. The data was fit using a 1:1 binding model. A-H.53 (phage clone) affinity is in the pM range (Table 16).\nas §1, with “A-H.54” for “A-H.52”, “model.” for “model. A-H.52 is a phage clones and is a monovalent scFv. A-H.52 has two mutations on CDRH1.”", "units": {"fold greater affinity than BJM0277": "fold"}}
{"binder": "B1", "fold greater affinity than BJM0277": 20}
{"binder": "B2", "fold greater affinity than BJM0277": 200}
{"binder": "B3", "fold greater affinity than BJM0277": 17}
{"biological_target": "T1, recombinant protein TCRVB 6-5", "assay": "SPR, TCRVB 6-5 captured on Biotin CAP chip, analyte from 50 nM in two-fold dilutions, 1:1 model, 25 C", "protocol": "as §1, §2\nas §1, with “A-H.54” for “A-H.52”, “model.” for “model. A-H.52 is a phage clones and is a monovalent scFv. A-H.52 has two mutations on CDRH1.”", "units": {"Kd": "nM"}}
{"binder": "B1", "Kd": 1.76}
{"binder": "B2", "Kd": 0.165}
{"binder": "B3", "Kd": 2.22}
